{
  "source": "paper PMC10120035",
  "about": "“HY5 functions as a systemic signal by integrating BRC1-dependent hormone signaling in tomato bud outgrowth”",
  "data": [
    {"target": "BRC1 (His-BRC1) (Solanum lycopersicum (tomato), UniProt A0A3Q7HTP5 1-406)", "sequence (A0A3Q7HTP5 entry or part of it)": "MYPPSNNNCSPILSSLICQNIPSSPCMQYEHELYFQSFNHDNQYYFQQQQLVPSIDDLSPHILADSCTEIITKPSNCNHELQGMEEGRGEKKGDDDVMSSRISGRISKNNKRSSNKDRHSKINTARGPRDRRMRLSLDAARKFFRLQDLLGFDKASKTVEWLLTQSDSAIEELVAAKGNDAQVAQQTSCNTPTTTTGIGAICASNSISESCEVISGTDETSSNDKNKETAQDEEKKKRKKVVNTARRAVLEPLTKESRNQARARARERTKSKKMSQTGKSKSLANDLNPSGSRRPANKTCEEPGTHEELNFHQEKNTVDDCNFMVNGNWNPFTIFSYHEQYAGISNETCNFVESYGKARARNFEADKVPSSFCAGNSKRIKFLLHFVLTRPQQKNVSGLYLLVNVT", "test": "EMSA; Light Shift Chemiluminescent EMSA kit (Thermo 20148) per manufacturer; buffer, salt, pH and temperature not stated", "details": "protein: recombinant; tags: His (pET-32a); chain copies: 2; label: 3' biotin (probe); blunt", "values": [
      {"binder": "LOG4-A WT (dsDNA) DNA 1: AGTAATCCTATTAGAAAAATGGGCCATGGACCTTGCCTTACCTAC DNA 2: GTAGGTAAGGCAAGGTCCATGGCCCATTTTTCTAATAGGATTACT", "binding result": "binds"},
      {"binder": "LOG4-A mut (dsDNA) DNA 1: AGTAATCCTATTAGAAAAATAAAAAATGGACCTTGCCTTACCTAC DNA 2: GTAGGTAAGGCAAGGTCCATTTTTTATTTTTCTAATAGGATTACT", "binding result": "no binding"},
      {"binder": "GA2ox5-A WT (dsDNA) DNA 1: CAATTGTTTTGTGGGGAAAGGGTGCCCTTTCTTTTTTATTCCAA DNA 2: TTGGAATAAAAAAGAAAGGGCACCCTTTCCCCACAAAACAATTG", "binding result": "binds"},
      {"binder": "GA2ox5-A mut (dsDNA) DNA 1: CAATTGTTTTGTGGGGAAAGAATGAACTTTCTTTTTTATTCCAA DNA 2: TTGGAATAAAAAAGAAAGTTCATTCTTTCCCCACAAAACAATTG", "binding result": "no binding"},
      {"binder": "GA2ox4-B WT (dsDNA) DNA 1: TCCCAAATTTTCGAATTATTAGGGGACCATTTTTTTTAAAAAAA DNA 2: TTTTTTTAAAAAAAATGGTCCCCTAATAATTCGAAAATTTGGGA", "binding result": "binds"},
      {"binder": "GA2ox4-B mut (dsDNA) DNA 1: TCCCAAATTTTCGAATTATTAGAAAAAAATTTTTTTTAAAAAAA DNA 2: TTTTTTTAAAAAAAATTTTTTTCTAATAATTCGAAAATTTGGGA", "binding result": "no binding"},
      {"binder": "CKX7-A WT (dsDNA) DNA 1: CCCCGACATCTAAAGAGTGGGCCCAAATATCAGATAAATCAAGAACA DNA 2: TGTTCTTGATTTATCTGATATTTGGGCCCACTCTTTAGATGTCGGGG", "binding result": "binds"},
      {"binder": "CKX7-A mut (dsDNA) DNA 1: CCCCGACATCTAAAGAGTAAACAAAAATATCAGATAAATCAAGAACA DNA 2: TGTTCTTGATTTATCTGATATTTTTGTTTACTCTTTAGATGTCGGGG", "binding result": "no binding"}
    ]}
  ]
}
